Test results from paper PMC10955490.

B1: SlGA2ox3 promoter GCC-box probe (dsDNA)
DNA 1: ATGCCCCCATCTGCCGCCCCTTCATATTTC
DNA 2: GAAATATGAAGGGGCGGCAGATGGGGGCAT
B2: SlGA2ox3 promoter mutated probe (dsDNA)
DNA 1: ATGCCCCCATCTAAAAAACCTTCATATTTC
DNA 2: GAAATATGAAGGTTTTTTAGATGGGGGCAT
B3: SlGA2ox3 promoter GCC-box unlabelled competitor (dsDNA)
DNA 1: B1 DNA 1
DNA 2: B1 DNA 2

Legend:
SlERF36 [1] = target: T1, SlERF36 (Solanum lycopersicum (tomato), UniProt A0A3Q7IBC2 1-221); experiment: EMSA
SlERF36 [2] = target: T1, SlERF36; experiment: competition

Binder | binding result (SlERF36 [1]) | binding result (SlERF36 [2])
B1 | binds | –
B2 | no binding | –
B3 | – | binds
